In patent publication US20240174746A1:

B1: TM-77 (antibody, V domains shown)
VH: QIQLQQSGAELVRPGASVKLSCKASGYTFTDYEMHWVKQTPVHGLEWIGVIDPETGGTAYNQMFKGKATLTADKSSSTAYMDLRSLTSEDSAVYYCVKYGIEGYWGQGTTLTVSS
VL: DVVMTQIPLTLSVTLGQPASISCKSSQSLFHSNGKTYLNWLLQRPGQSPKLLIYMVSKLESGVPDRFSGSGSGTDFTLKISRVEAEDLGVYYCLQVTHFPLTFGAGTKLELK
B2: TM-90 (antibody, V domains shown)
VH: QVHLQQSGPELVKPGASVKLSCKASGYPFTSYDINWVKQRPGQGLEWIGWIYPRDGNAKYNEKFKGKATLTVDTSSSTAYMELHSLTSENSAVYFCARVSDYHGGYGMDYWGQGTSVTVSS
VL: DVLMTQTPLSLPVSLGDQASISCRSSQSFVHGNGNTYLEWYLQKPGQSPKLLIYKVSHRFSGVPDRFSGSGSGTDFTLKITRVEAEDLGVYYCFQNSHVPHTFGGGTKLEIK
B3: TM-72 (antibody, V domains shown)
VH: QVQLQQPGAELVKPGTSVKLSCKASGSTFTNYWMHWVMQRPGQGLEWIGNIDPSDSDTHYNQKFKDRAKLTVDKSSSTAYMQLSGLTSEDSAVYYCARSRGGYYDYGEAMDYWGQGTSVTVSS
VL: DIVMTQAAPSVPVTPGESVSISCRSSKSLLHTNGNTYLFWFIQRPGQSPHLLIYRKSNLASGVPDRFSGSGSGTAFTLRISRVEAEDVGVYYCMQHLEYPFTFGSGTKLEIK
B4: TM-79 (antibody, V domains shown)
VH: EVQLQQSGPELVKPGASVKMSCKASGYTFTNYVMHWLKQKPGQGLEWIAHITPHNDGTKYNEKFKGKATLTSDRSSSTAYMELNSLTSEDSAIYYCARSGQFGRGDYFHYWGQGTTVTVSS
VL: DIVLTQSPASLAVSLGQRATISCRASKSVSTSGSIYIHWYQQKPGQPPKLLIYLTSNLESGVPARFSGSGSGTDFTLNIHPVEEEDAATYYCQHSGELPWTFGGGARLEIK
B5: TM-82 (antibody, V domains shown)
VH: QVQLQQSGAELVRPGTSVRVSCKASGYAFTNYLIEWIKQRPGQGLEWIGVINPGSGITDYSEKFKGKARLTADKSSSTAYMQLSSLTSDDSAVYFCTRSPFITTVVADYWGQGTTVTVSS
VL: DVVVTQTPLSLPVSFGDQVSISCRSSQSLANTYGNTYLSWYLHTPGQSPQLLIFGISNRFSGVPDRFSGSGSGTDFTLKISTIKPEDLGVYYCLQGTHPPRTFGGGTKLEMK

Columns and labels:
[1] = target: mouse TMEM106B (mouse) (UniProt Q80X71); assay: flow cytometry, HEK293 cells transiently transfected with murine TMEM106B
[2] = target: cynomolgus (cyno) TMEM106B (cynomolgus); assay: flow cytometry, HEK293 cells transiently transfected with cyno TMEM106B
[3] = target: human TMEM106B (human) (UniProt Q9NUM4); assay: flow cytometry, HEK293 cells transiently transfected with human TMEM106B

Row | Binder | fold-change in binding over parental HEK293 cells [1] [fold] | also measured
1 | B1 | 1.86 | –
2 | B2 | 1.97 | –
3 | B3 | – | fold-change in binding over parental HEK293 cells [2]: 1.78 fold
4 | B4 | 1.86 | –
5 | B5 | – | fold-change in binding over parental HEK293 cells [3]: 1.99 fold
